In assay [1] the target is Ube2g2 (Homo sapiens) (UniProt P60604). The note with it: cited from earlier work.
Assay [2] has the same target. As to conditions: cited from earlier work. The source holds these as a separate data set.
The target is the same in assay [3]. The note with it: cited from earlier work. This is another data set of the same source.
Assay [4] shares this target. As to conditions: cited from earlier work. This is another data set of the same source.
A further assay deals with T1, C89K-Ube2g2 (human, UniProt P60604 1-165, C89K).
T1 sequence: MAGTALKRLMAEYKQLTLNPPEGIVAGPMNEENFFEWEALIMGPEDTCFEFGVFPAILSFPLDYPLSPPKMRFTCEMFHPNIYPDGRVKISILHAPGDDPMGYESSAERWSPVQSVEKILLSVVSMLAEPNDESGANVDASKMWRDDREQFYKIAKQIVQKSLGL
Put plainly: NMR 15N CPMG relaxation dispersion of the complex compared with the free protein.

The target of the next assay is T2, Y103G-Ube2g2 (human, UniProt P60604 1-165, Y103G).
T2 sequence: T1 sequence with K89C, Y103G
Put plainly: ITC.

Another assay has as its target T3, Ube2g2 (wild type) (human, UniProt P60604 1-165).
T3 sequence: T1 sequence with K89C
Put plainly: NMR 15N heteronuclear NOE of the complex compared with the free protein.

Substitutions are numbered along the chain they refer to. Where two headings read alike, the source gives them in different places.

For gp78 G2BR (from UniProt Q9UKV5), the Kd in the assay with Ube2g2 (Homo sapiens) [1] is 21 nM.

gp78 RING-G2BR (from UniProt Q9UKV5): the dissociation constant Kd with Ube2g2 (Homo sapiens) [2] is 38 nM.

As to gp78 RING (from UniProt Q9UKV5), the figures for the equilibrium dissociation constant (Kd) with Ube2g2 (Homo sapiens) [3] and in the assay with Ube2g2 (Homo sapiens) [4] were 3000 nM and 144000 nM, respectively.

B1: RING-G2BR fusion protein of gp78 (domain or fragment, human)
chain: KNYLRVVGNMEARFAVATPEELAVNNDDCAICWDSMQAARKLPCGHLFHNSCLRSWLEQDTSCPTCRMSLNIADNNRVREEGGGGGGGSSGSSGGSGGGSGSSSGGGGGSGGGSGGGGGGGADERQRMLVQRKDELLQQARKRFLNK
In the case of B1, the binding result with C89K-Ube2g2 is reported as “binds”.

WSADERQRMLVQRKDELLQQARKRFLNK [G2BR peptide of gp78 (Ube2g2 binding region)]: in the assay with Y103G-Ube2g2, binding was characterised by a dissociation constant (Kd) of 59 ± 6 nM, the dH was -39.5 ± 0.4 kcal/mol and the “stoichiometry N” value amounted to 0.95. Also, the binding result in the assay with Ube2g2 (wild type) was “binds”.

Values taken from paper PMC5512444 (Structure (London, England : 1993), 2017).
